# Experimental data taken from US20030040612A1 (MOUNT SINAI SCHOOL OF MEDICINE, published 2003).
# Columns and labels:
# [1] = molecular target: SNT-1 PTB domain (residues 11-140 of SEQ ID NO:1) (human) (UniProt Q8WU20); assay: method not stated
# [2] = molecular target: T1, SNT-1 PTB domain (residues 11-140 of SEQ ID NO:1) (human, UniProt Q8WU20 11-140); assay: isothermal titration calorimetry (ITC)
# T1 construct: Recombinant from E. coli, isotope labelled for NMR; His6 tag cleaved with thrombin; Used in NMR and ITC; also called PTB Domain of SNT-1; SNT PTB domain
# T1 sequence: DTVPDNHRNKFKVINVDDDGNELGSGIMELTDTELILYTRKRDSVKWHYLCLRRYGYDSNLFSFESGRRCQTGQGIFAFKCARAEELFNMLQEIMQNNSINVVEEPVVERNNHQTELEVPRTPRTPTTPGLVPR
# [3] = molecular target: T2, juxtamembrane region of hFGFR1 as GAL4 DNA binding domain (BD) fusion protein, wild type (called hFGFR1 (human); SEQ ID NO:2 is …); assay: yeast two-hybrid, colony growth on His-, Leu-, Trp- medium
# T2 construct: Yeast two-hybrid construct; also called wild type hFGFR1
# Method: Mutagenesis and Yeast Two-Hybrid Binding Assays: The yeast two-hybrid binding studies of the SNT-1 PTB domain binding to hFGFR1 or tyrosine-phosphorylated TRK were performed as described previously [Xu et al., J. Biol. Chem. 273:17987-17990 (1998)]. Briefly, SNT-1 cDNA fragments were cloned into the pACT2 expression vector (Clontech) for expression as GAL4 DNA activation domain (AD) fusion proteins followed by C-terminal AU1-epitope tags. The juxtamembrane region of hFGFR1 was cloned into the pAS2-1 expression vector (Clontech) for expression as a GAL4 DNA binding domain (BD) fusion protein. This plasmid served as a template for site-directed mutagenesis of hFGFR1 using the QuikChange kit (Stratagene). DNA sequencing confirmed the mutations. AD and BD plasmids were co-transformed into Saccharomyces cerevisiae strain pJ69-4A and plated onto selective media. The synthetic medium lacking the amino acids Leu and Trp (Leu⁻, Trp⁻) selected for plasmid uptake. […] Levels of protein interaction were scored by relative colony growth on these plates. […] Similarly, expression of wild type and mutant hFGFR1 was detected by immunoprecipitation with a rabbit polyclonal antibody specific for BD (Santa Cruz Biotech) and western blotting with mouse monoclonal anti-BD antibody (Santa Cruz Biotech).
molecule,measurement,setting,value
tyrosine-phosphorylated peptide LVIAGNPApYRS (SEQ ID NO:4),Kd,[1],1 µM
same,fold higher affinity than for the FGFR derived peptide of SEQ ID NO:3,[1],10 fold
"HSQMAVHKLAKSIPLRRQVTVS (Synthetic peptide, not phosphorylated; also called FGFR peptide; FGF receptor peptide)",Kd,[2],~10 µM
"truncated SNT-1 PTB domain lacking the β8 region (residues 2-111), GAL4 AD fusion (other, not shown: large carriers; small tags and cut ends, Yeast two-hybrid construct; also called SNT-1 PTB domain protein lacking the β8 strand) GSCCSCPDKDTVPDNHRNKFKVINVDDDGNELGSGIMELTDTELILYTRKRDSVKWHYLCLRRYGYDSNLFSFESGRRCQTGQGIFAFKCARAEELFNMLQEIMQNNSIN",binding result,[3],no binding
